For orientation: Kd means the free concentration of one partner at which half of the binding sites on the other are occupied at equilibrium, for simple one-to-one binding. A lower Kd goes with higher affinity.

Some results are limits rather than exact numbers.

From patent US20210332120A1 (JOINT STOCK COMPANY BIOCAD, published 2021) come the findings set out here.

For one test, the target named is T1, human IL-17F (human, UniProt Q96PD4 31-163).
T1 construct: also called IL-17F human
T1 sequence (looked up): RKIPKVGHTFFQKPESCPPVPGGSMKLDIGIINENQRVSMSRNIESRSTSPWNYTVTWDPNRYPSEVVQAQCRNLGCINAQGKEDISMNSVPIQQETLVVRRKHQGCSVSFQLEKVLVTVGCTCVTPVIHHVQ
Briefly: BLI OctetRED96.

For test [1], the target named is T2, human IL-17A (human, UniProt Q16552 20-155, limits assumed). Briefly: cell-based or functional assay.
T2 sequence (Q16552 20-155 limits assumed): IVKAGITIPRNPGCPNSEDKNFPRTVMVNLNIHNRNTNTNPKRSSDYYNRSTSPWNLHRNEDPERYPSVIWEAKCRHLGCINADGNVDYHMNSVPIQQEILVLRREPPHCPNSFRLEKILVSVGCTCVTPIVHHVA
The target in another test is T3, mouse TNFα (mouse, UniProt P06804 80-235).
T3 sequence (looked up): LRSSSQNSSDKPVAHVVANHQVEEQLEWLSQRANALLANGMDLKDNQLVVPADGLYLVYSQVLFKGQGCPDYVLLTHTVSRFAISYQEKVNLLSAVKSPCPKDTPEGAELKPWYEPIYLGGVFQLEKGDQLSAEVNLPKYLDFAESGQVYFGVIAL
Briefly: ELISA, plate coated with mouse TNFα, anti-Fab HRP detection. On the technique in general: ELISA stands for enzyme-linked immunosorbent assay.

A further test addresses T4, rabbit TNFα (rabbit, UniProt P04924 80-235, limits assumed).
T4 sequence (looked up): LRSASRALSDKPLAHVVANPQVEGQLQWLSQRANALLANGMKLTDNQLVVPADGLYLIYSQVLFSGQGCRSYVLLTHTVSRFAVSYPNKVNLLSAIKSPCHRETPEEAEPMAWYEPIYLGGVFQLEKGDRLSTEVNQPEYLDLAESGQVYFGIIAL
Briefly: ELISA, plate coated with rabbit TNFα, anti-Fab HRP detection.

The target in another test is T5, human IL-17B (human, UniProt Q9UHF5 21-180).
T5 sequence (looked up): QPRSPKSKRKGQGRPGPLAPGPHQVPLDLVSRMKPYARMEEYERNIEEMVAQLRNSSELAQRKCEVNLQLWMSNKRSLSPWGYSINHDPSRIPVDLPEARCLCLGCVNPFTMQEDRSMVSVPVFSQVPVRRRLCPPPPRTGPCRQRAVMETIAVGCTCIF
Briefly: ELISA, plate coated with human IL-17B, anti-Fab HRP detection.

In another test the target is T6, human IL-17C (human, UniProt Q9P0M4 19-197).
T6 sequence (looked up): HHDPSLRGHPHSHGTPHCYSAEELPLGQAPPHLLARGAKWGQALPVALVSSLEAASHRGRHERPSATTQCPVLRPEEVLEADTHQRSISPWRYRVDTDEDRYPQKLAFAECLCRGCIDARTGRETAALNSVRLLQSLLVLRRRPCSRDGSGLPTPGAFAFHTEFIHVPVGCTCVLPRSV
The test can be described thus: ELISA, plate coated with human IL-17C, anti-Fab HRP detection.

For the next test, the target named is T7, human IL-17D (human, UniProt Q8TAD2 18-202, limits assumed).
T7 sequence (looked up): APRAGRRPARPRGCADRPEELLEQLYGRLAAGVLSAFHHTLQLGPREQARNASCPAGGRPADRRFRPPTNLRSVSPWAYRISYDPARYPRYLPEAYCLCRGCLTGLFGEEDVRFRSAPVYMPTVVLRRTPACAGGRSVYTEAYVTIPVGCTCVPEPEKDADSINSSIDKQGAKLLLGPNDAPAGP
Briefly: ELISA, plate coated with human IL-17D, anti-Fab HRP detection.

The target of a further test is T8, human IL-17E (human, UniProt Q9H293 33-177).
T8 sequence (looked up): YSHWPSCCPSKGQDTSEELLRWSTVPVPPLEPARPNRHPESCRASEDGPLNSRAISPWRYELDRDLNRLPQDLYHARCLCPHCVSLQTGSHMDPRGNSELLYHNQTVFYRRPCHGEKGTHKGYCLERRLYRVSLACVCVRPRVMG
The test can be described thus: ELISA, plate coated with human IL-17E, anti-Fab HRP detection.

The target of a further test is T9, guinea pig TNFα (guinea pig, UniProt P51435 80-234, limits assumed).
T9 sequence (looked up): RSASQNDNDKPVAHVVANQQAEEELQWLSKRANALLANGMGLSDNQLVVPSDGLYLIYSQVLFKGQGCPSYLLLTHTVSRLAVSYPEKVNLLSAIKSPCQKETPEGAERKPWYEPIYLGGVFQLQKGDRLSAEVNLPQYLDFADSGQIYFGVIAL
Briefly: ELISA, plate coated with guinea pig TNFα, anti-Fab HRP detection.

The target of the next test is T10, TNFα multta (multta (so in the source); primate), UniProt P48094 77-233).
T10 construct: The species is printed only as 'multta'; read as Macaca mulatta
T10 sequence (P48094 77-233 limits assumed): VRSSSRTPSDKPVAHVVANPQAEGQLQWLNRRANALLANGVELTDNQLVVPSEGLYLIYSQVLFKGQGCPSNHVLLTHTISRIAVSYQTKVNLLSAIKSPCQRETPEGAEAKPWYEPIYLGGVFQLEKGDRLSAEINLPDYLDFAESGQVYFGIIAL
Briefly: SPR Biacore T200; ligand amine-coupled, antibody 1 to 25 µg/ml, Heterogeneous Ligand model. On the technique in general: Surface plasmon resonance follows binding to a sensor surface in real time, without labels.

The next test has as its target T11, cynomolgus IL-17A (cyno, UniProt A0A2K5TTB0 24-155).
T11 construct: also called IL-17A cyno
The description is as above.

Test [2] deals with T2, human IL-17A. The test can be described thus: SPR Biacore T200; ligand amine-coupled, antibody 1 to 25 µg/ml, Heterogeneous Ligand model; * below the threshold sensitivity of the device.
Method: (§1) The analysis was conducted using the Sandwich approach using IL-17A and TNFα preparations produced by Sino Biologics. After activation of the chips, individual ligand was nonspecifically (by NH2 groups) immobilized on the biosensor surface at a concentration of 20 μg/ml. Loading of the antibody was then performed at a concentration from 1 to 25 μg/ml. Thereafter, the sensors were immersed in the running buffer for the complex dissociation step. The flow rate was 10 μl/min.
(§2) Analysis of the obtained data was performed using BIA Evolution 3.1 software and the Heterogeneous Ligand model.

T11 sequence (A0A2K5TTB0 entry or part of it): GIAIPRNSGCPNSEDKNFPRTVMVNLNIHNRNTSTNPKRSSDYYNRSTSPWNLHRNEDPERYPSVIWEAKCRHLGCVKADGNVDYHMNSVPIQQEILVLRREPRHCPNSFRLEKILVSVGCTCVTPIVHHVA
Method for TNFα multta: as §1, §2
Method for cynomolgus IL-17A: as §1, §2
Method for human IL-17B: (§3) For the binding analysis, the wells of ELISA plates (medium binding from Greiner bio one) were individually coated with 50 μl of human IL-17A, IL-17B, IL-17C, IL-17D, IL-17E, IL-17F, or IL-17A/F (R&D Systems) at a concentration of 1 μg/ml (in 1× coating carbonate buffer), hermetically sealed, and incubated overnight at 4 C. All subsequent steps were performed by standard EIA protocol. To block non-specific binding blocking, buffer BB was added (200 μl of 0.5% skim milk in PBS). Plates were incubated on a shaker for one hour at room temperature. After washes with PBS-Tween, 50 μl of the test antibodies were added to each well at a concentration of 5 μg/ml in PBS-Tween. Plates were again incubated with shaking for one hour at room temperature, then each well of the plates was washed three times with PBS-Tween buffer. After washing, human anti-Fab HRP-conjugated secondary antibody (from Pierce-ThermoScientific) was added (50 μl/well) at a ratio of 1:5000 in PBS-Tween. Plates were shaken on a rotary shaker (50 min, room temperature) and washed three times with PBS-Tween buffer, as described above. […] The color signal was measured at 450 nm using a suitable plate-reader (Tecan-Sunrise; Tecan).
Method for human IL-17C: as §3
Method for human IL-17D: as §3
Method for human IL-17E: as §3

B1: BCD-121 tri-specific anti-IL-17A/anti-IL-17F/anti-TNFα antibody (bispecific antibody, human IgG1, kappa, L234A L235A)
heavy: not shown
light: EVQLVQSGGGLVQAGGSLRLSCAASGGTFATSPMGWLRQAPGKGTEFVAAISPSGGDRIYADSVKGRFTISRDNAGNFIYLQMNSLKPEDTAVYYCAVRRRFDGTSYYTGDYDSWGQGTLVTVSSGGGSGGGSEGAGSDIQMTQSPSSLSASVGDRVTITCKASQNVGTNVAWYQQKPGKAPKALIYSASFLYSGVPYRFSGSGSGTDFTLTISSLQPEDFATYYCQQYNIFPLTFGQGTKVEIKRTVAAPSVFIFPPSDEQLKSGTASVVCLLNNFYPREAKVQWKVDNALQSGNSQESVTEQDSKDSTYSLSSTLTLSKADYEKHKVYACEVTHQGLSSPVTKSFNRGEC
notes: also called Mab12; VHH-IgG1 (LALA)
On to B1, for which the Kd is approximately 4000 pM with human IL-17F, approximately 1 pM with TNFα multta, approximately 1 pM in the test with cynomolgus IL-17A and less than 1 pM with human IL-17A [2]. For the same molecule, the “IC50, IL-17A and TNFα induced IL-6 production, HT1080 cells” value with human IL-17A [1] was 0.02 µg/mL. Also, the “IC50, IL-17A-dependent IL-6 production, HT1080 cells” value in the test with human IL-17A [1] worked out at 0.0035 µg/mL. The binding result with mouse TNFα is on record as “no binding (tested: 2 ng/ml)”; in the test with rabbit TNFα it was “no binding (tested: 2 ng/ml)”; with human IL-17B it was “no binding (tested: 0,5 ng/ml)”; in the test with human IL-17C it was “no binding (tested: 0,5 ng/ml)”; with human IL-17D, “no binding (tested: 0,5 ng/ml)”; with human IL-17E it was “no binding (tested: 0,5 ng/ml)”. In addition, in the test with guinea pig TNFα, the binding result is “no binding (tested: 2 ng/ml)”.
